The record followed here is patent WO2008121813A2 (dated 2009).

This test addresses T1, human DUBA polypeptide (human, UniProt Q96G74 1-571).
T1 construct: Used for endogenous DUBA of HEK293 and TLR3/293 cells and for human DUBA in transfected cells (Western blot with the hamster antibodies); also called OTUD5; OTU domain containing 5
T1 sequence: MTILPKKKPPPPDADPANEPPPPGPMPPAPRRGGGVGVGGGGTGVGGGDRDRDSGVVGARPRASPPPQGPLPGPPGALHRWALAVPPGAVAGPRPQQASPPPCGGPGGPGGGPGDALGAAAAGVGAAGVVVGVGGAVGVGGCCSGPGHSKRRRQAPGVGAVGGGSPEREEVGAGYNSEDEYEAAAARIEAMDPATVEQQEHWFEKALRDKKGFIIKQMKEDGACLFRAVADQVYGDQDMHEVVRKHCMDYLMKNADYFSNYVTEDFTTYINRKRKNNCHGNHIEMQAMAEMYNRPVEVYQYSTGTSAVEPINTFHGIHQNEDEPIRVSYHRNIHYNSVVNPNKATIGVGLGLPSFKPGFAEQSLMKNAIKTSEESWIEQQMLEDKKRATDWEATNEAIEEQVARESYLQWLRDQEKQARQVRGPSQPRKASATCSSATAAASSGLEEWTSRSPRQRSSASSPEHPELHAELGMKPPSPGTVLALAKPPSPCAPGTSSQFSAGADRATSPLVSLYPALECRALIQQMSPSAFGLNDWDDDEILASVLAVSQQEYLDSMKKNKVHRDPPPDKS
The test can be described thus: anti-DUBA immunoprecipitation from TLR3/293 lysates at 0, 60 and 180 minutes, anti-TRAF3 Western blot.

B1: endogenous TRAF3 (enzyme, UniProt Q13114 1-568, looked up)
chain: MESSKKMDSPGALQTNPPLKLHTDRSAGTPVFVPEQGGYKEKFVKTVEDKYKCEKCHLVLCSPKQTECGHRFCESCMAALLSSSSPKCTACQESIVKDKVFKDNCCKREILALQIYCRNESRGCAEQLMLGHLLVHLKNDCHFEELPCVRPDCKEKVLRKDLRDHVEKACKYREATCSHCKSQVPMIALQKHEDTDCPCVVVSCPHKCSVQTLLRSELSAHLSECVNAPSTCSFKRYGCVFQGTNQQIKAHEASSAVQHVNLLKEWSNSLEKKVSLLQNESVEKNKSIQSLHNQICSFEIEIERQKEMLRNNESKILHLQRVIDSQAEKLKELDKEIRPFRQNWEEADSMKSSVESLQNRVTELESVDKSAGQVARNTGLLESQLSRHDQMLSVHDIRLADMDLRFQVLETASYNGVLIWKIRDYKRRKQEAVMGKTLSLYSQPFYTGYFGYKMCARVYLNGDGMGKGTHLSLFFVIMRGEYDALLPWPFKQKVTLMLMDQGSSRRHLGDAFKPDPNSSSFKKPTGEMNIASGCPVFVAQTVLENGTYIKDDTIFIKVIVDTSDLPDP
notes: RING finger-type ubiquitin ligase; also called TNF receptor-associated factor (TRAF3)
In the case of B1, the binding result was “binds”.
